Reference: ChEMBL document CHEMBL4482315, “In vivo imaging of sulfotransferases” (2013)
Where “and” joins values, the source holds several entries; their conditions need not be identical. Equal values may be shown once.

Legend:
[1] = substrate: Oc1ccc2ccccc2c1; experiment: not read
[2] = substrate: Oc1ccc2sccc2c1; experiment: (§1) Substrate activity at SULT1A1 (unknown origin) expressed in baculovirus infected Sf9 cells assessed as substrate Km incubated for 15 mins using [35S-]PAPS as sulfate donor by TLC analysis; parameters: species or system Homo sapiens
[3] = substrate: Oc1ccc2[nH]ccc2c1; experiment: as §1; parameters: species or system Homo sapiens
[4] = substrate: Oc1ccc2[nH]cnc2c1; experiment: as §1; parameters: species or system Homo sapiens
[5] = substrate: Oc1ccc2nc(-c3ccccc3)sc2c1; experiment: as §1; parameters: species or system Homo sapiens
[6] = substrate: Oc1ccc2ccoc2c1; experiment: as §1; parameters: species or system Homo sapiens
[7] = substrate: Cc1nc2cc(O)ccc2s1; experiment: as §1; parameters: species or system Homo sapiens
[8] = substrate: Oc1ccc2occc2c1; experiment: as §1; parameters: species or system Homo sapiens
[9] = substrate: Oc1ccc2cc[nH]c2c1; experiment: as §1; parameters: species or system Homo sapiens
[10] = substrate: CN(C)c1ccc(-c2nc3cc(O)ccc3s2)cc1; experiment: as §1; parameters: species or system Homo sapiens
[11] = substrate: Oc1ccc2ccsc2c1; experiment: as §1; parameters: species or system Homo sapiens
[12] = substrate: Cc1nc2ccc(O)cc2s1; experiment: as §1; parameters: species or system Homo sapiens
[13] = substrate: CNc1ccc(-c2nc3cc(O)ccc3s2)cc1; experiment: as §1; parameters: species or system Homo sapiens
[14] = substrate: Oc1ccc2ncsc2c1; experiment: as §1; parameters: species or system Homo sapiens
[15] = substrate: Oc1ccc2ncoc2c1; experiment: as §1; parameters: species or system Homo sapiens
[16] = substrate: CS(=O)(=O)c1ccc(-c2nc3ccc(O)cc3s2)cc1; experiment: (§2) Substrate activity at SULT1E1 (unknown origin) expressed in baculovirus infected Sf9 cells assessed as substrate Km incubated for 15 mins using [35S-]PAPS as sulfate donor by TLC analysis; parameters: species or system Homo sapiens
[17] = substrate: Oc1ccc2nc(-c3ccc(F)cc3)sc2c1; experiment: as §2; parameters: species or system Homo sapiens
[18] = substrate: Oc1ccc2sccc2c1; experiment: as §2; parameters: species or system Homo sapiens
[19] = substrate: COc1ccc(-c2nc3ccc(O)cc3s2)cc1; experiment: as §2; parameters: species or system Homo sapiens
[20] = substrate: Oc1ccc2nc(-c3ccccc3)sc2c1; experiment: as §2; parameters: species or system Homo sapiens
[21] = substrate: O=[N+]([O-])c1ccc(-c2nc3ccc(O)cc3s2)cc1; experiment: as §2; parameters: species or system Homo sapiens
[22] = substrate: Nc1ccc(-c2nc3ccc(O)cc3s2)cc1; experiment: as §2; parameters: species or system Homo sapiens
[23] = substrate: Oc1ccc2ccoc2c1; experiment: as §2; parameters: species or system Homo sapiens
[24] = substrate: Cc1nc2cc(O)ccc2s1; experiment: as §2; parameters: species or system Homo sapiens
[25] = substrate: CC(=O)Nc1ccc(-c2nc3ccc(O)cc3s2)cc1; experiment: as §2; parameters: species or system Homo sapiens
[26] = substrate: CNc1ccc(-c2nc3ccc(O)cc3s2)cc1; experiment: as §2; parameters: species or system Homo sapiens
[27] = substrate: Oc1ccc2occc2c1; experiment: as §2; parameters: species or system Homo sapiens
[28] = substrate: CN(C)c1ccc(-c2nc3cc(O)ccc3s2)cc1; experiment: as §2; parameters: species or system Homo sapiens
[29] = substrate: CN(C)c1ccc(-c2nc3ccc(O)cc3s2)cc1; experiment: as §2; parameters: species or system Homo sapiens
[30] = substrate: Oc1ccc2ccsc2c1; experiment: as §2; parameters: species or system Homo sapiens
[31] = substrate: Cc1nc2ccc(O)cc2s1; experiment: as §2; parameters: species or system Homo sapiens
[32] = substrate: CNc1ccc(-c2nc3cc(O)ccc3s2)cc1; experiment: as §2; parameters: species or system Homo sapiens
[33] = substrate: Oc1ccc2ncsc2c1; experiment: as §2; parameters: species or system Homo sapiens
[34] = substrate: N#Cc1ccc(-c2nc3ccc(O)cc3s2)cc1; experiment: as §2; parameters: species or system Homo sapiens
[35] = substrate: Oc1ccc2nc(-c3ccc(I)cc3)sc2c1; experiment: as §2; parameters: species or system Homo sapiens
[36] = substrate: Oc1ccc2ncoc2c1; experiment: as §2; parameters: species or system Homo sapiens
[37] = substrate: Oc1ccc2sccc2c1; experiment: (§3) Substrate activity at SULT1A3 (unknown origin) expressed in baculovirus infected Sf9 cells assessed as substrate Km incubated for 15 mins using [35S-]PAPS as sulfate donor by TLC analysis; parameters: species or system Homo sapiens
[38] = substrate: Oc1ccc2[nH]ccc2c1; experiment: as §3; parameters: species or system Homo sapiens
[39] = substrate: Oc1ccc2ccoc2c1; experiment: as §3; parameters: species or system Homo sapiens
[40] = substrate: Cc1nc2cc(O)ccc2s1; experiment: as §3; parameters: species or system Homo sapiens
[41] = substrate: Oc1ccc2occc2c1; experiment: as §3; parameters: species or system Homo sapiens
[42] = substrate: Oc1ccc2cc[nH]c2c1; experiment: as §3; parameters: species or system Homo sapiens
[43] = substrate: Oc1ccc2ccsc2c1; experiment: as §3; parameters: species or system Homo sapiens
[44] = substrate: Oc1ccc2ncsc2c1; experiment: as §3; parameters: species or system Homo sapiens
[45] = substrate: Oc1ccc2ncoc2c1; experiment: as §3; parameters: species or system Homo sapiens

B1: Sulfotransferase 2A1 (Homo sapiens) (protein)
chain: MSDDFLWFEGIAFPTMGFRSETLRKVRDEFVIRDEDVIILTYPKSGTNWLAEILCLMHSKGDAKWIQSVPIWERSPWVESEIGYTALSETESPRLFSSHLPIQLFPKSFFSSKAKVIYLMRNPRDVLVSGYFFWKNMKFIKKPKSWEEYFEWFCQGTVLYGSWFDHIHGWMPMREEKNFLLLSYEELKQDTGRTIEKICQFLGKTLEPEELNLILKNSSFQSMKENKMSNYSLLSVDYVVDKAQLLRKGVSGDWKNHFTVAQAEDFDKLFQEKMADLPRELFPWE
Km [1]: 254 µM | Vmax [1]: 0.00019 µmol/min/mg

B2: Sulfotransferase 1A1 (Homo sapiens) (protein)
chain: MELIQDTSRPPLEYVKGVPLIKYFAEALGPLQSFQARPDDLLISTYPKSGTTWVSQILDMIYQGGDLEKCHRAPIFMRVPFLEFKAPGIPSGMETLKDTPAPRLLKTHLPLALLPQTLLDQKVKVVYVARNAKDVAVSYYHFYHMAKVHPEPGTWDSFLEKFMVGEVSYGSWYQHVQEWWELSRTHPVLYLFYEDMKENPKREIQKILEFVGRSLPEETVDFVVQHTSFKEMKKNPMTNYTTVPQEFMDHSISPFMRKGMAGDWKTTFTVAQNERFDADYAEKMAGCSLSFRSEL
Km [1]: 0.17 µM | Vmax [1]: 0.0146 µmol/min/mg | Km [2]: 0.14 µM | Vmax [2]: 0.0112 µmol/min/mg | Km [3]: 6.62 µM | Vmax [3]: 0.0128 µmol/min/mg | Km [4]: 19.3 µM | Vmax [4]: 0.0085 µmol/min/mg | Km [5]: 0.045 µM | Vmax [5]: 0.00525 µmol/min/mg | Km [6]: 0.18 µM | Vmax [6]: 0.0265 µmol/min/mg | Km [7]: 5.9 µM | Vmax [7]: 0.0193 µmol/min/mg | Km [8]: 0.62 µM | Vmax [8]: 0.00987 µmol/min/mg | Km [9]: 0.23 µM | Vmax [9]: 0.0203 µmol/min/mg | Km [10]: 0.04 µM | Vmax [10]: 0.011 µmol/min/mg | Km [11]: 0.08 µM | Vmax [11]: 0.00978 µmol/min/mg | Km [12]: 6.2 µM | Vmax [12]: 0.0103 µmol/min/mg | Km [13]: 0.012 µM | Vmax [13]: 0.0039 µmol/min/mg | Km [14]: 2.08 µM | Vmax [14]: 0.0103 µmol/min/mg | Km [15]: 5.5 µM | Vmax [15]: 0.0132 µmol/min/mg

B3: Sulfotransferase 1E1 (Homo sapiens) (protein)
chain: MNSELDYYEKFEEVHGILMYKDFVKYWDNVEAFQARPDDLVIATYPKSGTTWVSEIVYMIYKEGDVEKCKEDVIFNRIPFLECRKENLMNGVKQLDEMNSPRIVKTHLPPELLPASFWEKDCKIIYLCRNAKDVAVSFYYFFLMVAGHPNPGSFPEFVEKFMQGQVPYGSWYKHVKSWWEKGKSPRVLFLFYEDLKEDIRKEVIKLIHFLERKPSEELVDRIIHHTSFQEMKNNPSTNYTTLPDEIMNQKLSPFMRKGITGDWKNHFTVALNEKFDKHYEQQMKESTLKFRTEI
Vmax [1]: 0.00339 µmol/min/mg and 0.00486 µmol/min/mg | Km [16]: 1.32 µM | Vmax [16]: 0.00357 µmol/min/mg | Km [17]: 0.92 µM | Vmax [17]: 0.00416 µmol/min/mg | Km [18]: 38 µM | Vmax [18]: 0.00291 µmol/min/mg | Km [19]: 0.9 µM | Vmax [19]: 0.00197 µmol/min/mg | Km [20]: 0.99 µM | Vmax [20]: 0.00318 µmol/min/mg | Km [21]: 0.12 µM | Vmax [21]: 0.00343 µmol/min/mg | Km [22]: 1.63 µM | Vmax [22]: 0.00278 µmol/min/mg | Km [23]: 90.9 µM | Vmax [23]: 0.00272 µmol/min/mg | Km [24]: 15.9 µM | Vmax [24]: 0.0047 µmol/min/mg | Km [25]: 2.36 µM | Vmax [25]: 0.00204 µmol/min/mg | Km [26]: 1.6 µM | Vmax [26]: 0.0021 µmol/min/mg | Km [27]: 177 µM | Vmax [27]: 0.00179 µmol/min/mg | Km [28]: 0.39 µM | Vmax [28]: 0.00098 µmol/min/mg | Km [29]: 1.33 µM | Vmax [29]: 0.00149 µmol/min/mg | Km [30]: 11.5 µM | Vmax [30]: 0.00287 µmol/min/mg | Km [31]: 6.96 µM | Vmax [31]: 0.00329 µmol/min/mg | Km [32]: 1.31 µM | Vmax [32]: 0.00182 µmol/min/mg | Km [33]: 61.3 µM | Vmax [33]: 0.0023 µmol/min/mg | Km [34]: 0.25 µM | Vmax [34]: 0.00433 µmol/min/mg | Km [35]: 0.52 µM | Vmax [35]: 0.00295 µmol/min/mg | Km [36]: 525 µM | Vmax [36]: 0.0033 µmol/min/mg | Km [37]: 251 µM | Vmax [37]: 0.00612 µmol/min/mg | Km [38]: 575 µM | Vmax [38]: 0.00366 µmol/min/mg | Km [39]: 377 µM | Vmax [39]: 0.00888 µmol/min/mg | Km [40]: 1040 µM | Vmax [40]: 0.0101 µmol/min/mg | Km [41]: 385 µM | Vmax [41]: 0.00834 µmol/min/mg | Km [42]: 2710 µM | Vmax [42]: 0.0195 µmol/min/mg | Km [43]: 157 µM | Vmax [43]: 0.00982 µmol/min/mg | Km [44]: 280 µM | Vmax [44]: 0.00809 µmol/min/mg | Km [45]: 1070 µM | Vmax [45]: 0.0115 µmol/min/mg
